The text below walks through data of paper PMC8544208 (Antibodies, 2021).

This assay deals with T1, C5b6 with bound C7 and C8, assembled on the SPR chip (human | , UniProt P01031 19-673; P01031 752-1676; P13671 22-934; P10643 23-843; P07357 31-584; …).
T1 construct: complement C5 beta chain, as part of C5b; complement C5 alpha' chain of C5b; complement component C6; complement component C7; complement component C8 alpha chain; complement component C8 beta chain; complement component C8 gamma chain; Formed by injecting C7 (4 nM) and then C8 (8 nM) over C5b6 captured on the anti-C5 tool antibody; source: assembled on the SPR chip from bought C5b6, C7 and C8 …
The experiment in a line: SPR; MAC assembly assay, Biacore 8K, HBS-EP+; anti-C5 antibody amine coupled to a CM5 chip, C5 or C5b6 captured at 4 nM; C7, C8 and C9 flowed over in succession at 4, 8 and 50 nM, also with single components left out. The note with it: both partners purified. On the technique in general: In SPR one partner is held on a chip, and binding of the other changes the refractive index at the surface.

B1: Complement C9 (natural protein)
chain: not shown
notes: complement component C9; Unlabelled C9 as used in SPR; source: bought: Complement Technology (Comptech)
With B1, the binding result was “binds”.
